Source: patent US20240240160A1, “NOVEL OLIVETOL SYNTHASES FOR C[…]” (priority 2021, published 2024)

B1: AAZ32094.1: Type-III PKS enzyme from Oncidium hybrid cultivar (protein)
chain: MPSLESVKNAKRAEGFASILAIGRANPEHFIEQSSYPDFFFRVTNSEHLVALKKKFQRICDKTAIRKRHFAWNEELLTTNSCFQTFMGNSLNVRQEFAIREIPKLGAQAANKAIQEWGQPKSRITHLIFCTTSGMDLPGADYQLTEILGLNPNVERVMLYQQGCFAGGTTLRLAKCLAESRKGARVLVVCAETTTVLFRAPSEEHQDDLVTQALFADGASALIVGADPDEAAHERASFIIVSTSQVLLPDSAGAIGGHVSEGGLLATLHRDVPQIVSKNVGKCLEEAFTPLGISDWNSIFWVPHPGGRAILDQIEERVGLKPEKLFISRHVLAEYGNMSSVCVHFALDEMRKRSAKEGKATTGEGLDWGVLFGFGPGLTVETVVLHSVPVTN
modifications: Oncidium hybrid cultivar; (1)..(392) AAZ32094.1
B2: QCO76957.1: Type-III PKS enzyme from Dendrobium officinale (protein)
chain: MPSLESIRKAPRANGFASILAIGRANPENFIEQSTYPDFFFRITNSEHLVDLKKKFQRICDKTAIRKRHFVWNEEFITTNPCLHTFMDKSLDVRQEVAIREIPKLGAKAAAKAIQEWGQPKSRITHLIFCTTSGMDLPGADYQLTQILGLNPNVERVMLYQQGCFAGGTTLRLAKCLAESRKGARVLVVCAETTTVLFRGPSEEHQEDLVTQALFADGASALIVGADPDEAAHERASFVIVSTSQVLLPDSAGAIGGHVSEGGLLATLHRDVPKIVSKNVEKCLEEAFTPFGITDWNSIFWVPHPGGRAILDLVEERVGLKPEKLLVSRHVLAEYGNMSSVCVHFALDEMRKRSAIEGKATTGEGLEWGVVFGFGPGLTVETVVLRSVPL
modifications: Dendrobium officinale; (1)..(390) QCO76957.1
B3: AIM58716.1: Type-III PKS enzyme from Cymbidium hybrid cultivar (protein)
chain: MPSLESVKKSNRADGFASILAIGRANPENFIEQSTYPDFFFRVTNSEHLVNLKKKFQRICDKTAIRKRHFVWNEELLNANPCLGTFMDNSLNVRQEFAIREIPKLGAEAATKAIQEWGQPKSRITHLIFCTTSGMDLPGADYQLTQILGLNPNIERVMLYQQGCFAGGTTLRLAKCLAESRKGARVLVVCAETTAVLFRAPSEEHQDDLVTQALFADGASALIVGADPDETAHERASFVIVSTSQVLLPDSAGAIGGHVSEGGLIATLHRDVPQIVSKNVGKCLEEAFTPLGISDWNSIFWVPHPGGRAILDQVEERVGLKPEKLIVSRHVLAEYGNMSSVCVHFALDEMRKRSKKEGKATTGEGLDWGVLFGFGPGLTVETVVLHSVPI
modifications: Cymbidium hybrid cultivar; (1)..(390) AIM58716.1

Columns and labels:
[1] = test system: AAZ32094.1 from Oncidium hybrid cultivar (SEQ ID NO:2); test: Product inhibition assay with butyryl-CoA and malonyl-CoA; assay type: biochemical
Experimental: (§1) Assays were performed in a total volume of 50 μL in 100 mM Tris, pH 7.5 buffer containing 100 μM malonyl-CoA; 100 µM hexanoyl-CoA; a malonyl-CoA regenerating system comprising malonyl-CoA synthetase, excess malonate, and ATP; and excess purified olivetolic acid cyclase (OAC). The major product in this assay was olivetolic acid (OLA), and the triketide pentyl diacetic acid lactone (PDAL) was a side product. N-His-tagged purified enzymes were assayed under these assay conditions at enzyme concentrations and reaction times suitable for initial rate measurements of product formation. Reactions were initiated by addition of the PKS, then incubated for 30 min. Subsequently, 10 μL of reaction solution was removed and quenched into 15 volumes of 75% acetonitrile containing 0.1% formic acid and internal standards, then centrifuged to pellet denatured protein. Supernatants were transferred to fresh plates for LC-MS analysis of OLA, olivetol (OL), and PDAL as described in the Method section above.
(§2) Assays were performed as described in Example 3 with the following exception: instead of hexanoyl-CoA (C6), butyryl-CoA (C4) was used as substrate along with malonyl-CoA, in order to evaluate the inhibitory effect of the products with hexanoyl-CoA (i.e., OLA, OL and PDAL) on the activity of the enzymes. Accordingly, the products in this assay were the tetraketides divarinic acid (DVA) and divarinol (DVL) and the triketide propyl diacetic acid lactone (propyl-DAL) (see FIG. 4). The rates to form these products were measured in the presence of various concentrations of OLA, OL, and PDAL.

[2] = test system: QDX46968.1 from Anoectochilus roxburghii (SEQ ID NO:6); test: as above; assay type: biochemical
Experimental: as §1, §2

OLS from C. sativa = biological target: T1, OLS from C. sativa (Cannabis sativa, UniProt B1Q2B6); test: as above; assay type: biochemical; details: for amount of DVA+DVL formed by the enzyme: at 1 mM of the added product, butyryl-CoA substrate; for enzyme activity: at 2 mM of the added product
T1 construct: made in house
T1 sequence (B1Q2B6 1-385): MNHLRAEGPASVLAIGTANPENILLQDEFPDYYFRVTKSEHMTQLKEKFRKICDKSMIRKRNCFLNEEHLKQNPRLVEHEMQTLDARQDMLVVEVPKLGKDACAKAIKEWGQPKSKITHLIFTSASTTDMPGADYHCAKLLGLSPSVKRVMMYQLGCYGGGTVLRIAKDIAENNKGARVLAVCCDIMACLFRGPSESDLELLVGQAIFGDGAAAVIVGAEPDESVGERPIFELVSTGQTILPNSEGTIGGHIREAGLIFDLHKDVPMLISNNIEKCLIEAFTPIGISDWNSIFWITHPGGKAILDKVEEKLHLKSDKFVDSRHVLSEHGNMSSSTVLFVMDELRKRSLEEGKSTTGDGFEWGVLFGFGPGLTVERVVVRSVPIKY
Experimental: as §1, §2

[3] = test system: E. coli derivative strain which overexpressed an acyl-CoA synthetase (fadD) gene and expressed an olivetolic acid cyclase (OAC) from Cannabis sativa; test: OL, OLA and PDAL production in E. coli from plasmid-expressed Type-III PKS genes; assay type: cell-based; details: gene on plasmid; for Total: OL + OLA + PDAL; for OL / OLA / PDAL: constitutive promoter, culture spiked with 4 mM hexanoic acid
Experimental: (§3) To test olivetolic acid production in E. coli, strains comprising a putative OLS gene and an OAC gene from C. sativa were inoculated in multi-well plates containing LB supplemented with 1% glucose and appropriate concentrations of antibiotics. After 6 hours of cultivation at 32° C., the cells were transferred with a 10% inoculum to a P-limited seed medium (see Table 2) and cultivated for ˜18 hours at 32° ° C. to reach an OD of 2.0-4.0. The cultures were transferred with a 20% inoculum in a P-minimal medium (see Table 3) supplemented with 2% glucose and appropriate concentrations of antibiotics. After 3 hours of cultivation at 32° C., the culture was spiked with 4 mM hexanoic acid (˜OD 1.5-2.0). The resulting cultures were then harvested at either 3 hours or 21 hours post hexanoic acid spike; a final OD was taken. 300 μL of butyl acetate containing 500 mg/L undecanoic acid was added to each multi-well plate. The plates were then vortexed for 30 minutes at 1500 rpm and centrifuged for 10 minutes at 4500 rpm. 50 μL of organic layer was transferred to a 96-well plate and derivatized with 50 μL of N,O-Bis(trimethylsilyl)trifluoroacetamide (BSTFA). The plate was then incubated at room temperature for 2 hours to allow for complete derivatization. The samples were then run on GC-FID for analytical quantification of olivetolic acid (OLA), olivetol (OL), PDAL, and hexanoic acid.
(§4) Olivetol, PDAL, OLA, HTAL, CBGA and combinations thereof were analyzed by LCMS or LCMS/MS methods using C18 reversed phase chromatography coupled to either EXACTIVE™ (ThermoFisher) or QTRAP® 4500 (Sciex) mass spectrometers.
(§5) For reversed phase LCMS, compounds were identified by their LC retention times and MRM transitions specific to the compounds. LCMS/MS analysis was conducted on a Shimadzu UHPLC system coupled with AB Sciex QTRAP 4500 mass spectrometer. Agilent Eclipse XDB C18 column (4.6×3.0 mm, 1.8 μm) was used with a 1-min gradient elution at 1 mL/min using water containing 0.1% ammonia acetate as mobile phase A and 90% methanol containing 0.1% ammonia acetate as mobile phase B. The LC column temperature was maintained at 45° C. Negative ionization mode was used for all the analytes.
The genes for 20 Type-III PKS enzymes were codon optimized for E. coli and cloned under control of a constitutive promoter into an expression vector (p15a replicon, carbenicillin resistance marker). The 20 plasmids were transformed into an E. coli derivative strain which overexpressed an acyl-CoA synthetase (fadD) gene and expressed an olivetolic acid cyclase (OAC) from Cannabis sativa.
(§6) The in vivo assay procedure and analytical methods were performed as described above.

[4] = test system: hexanoyl-CoA and malonyl-CoA; test: Specific activity assay of purified type-III polyketide synthases (OLA formation in presence of OAC); assay type: biochemical; details: hexanoyl-CoA and malonyl-CoA in the presence of OAC; FIG. 3
Experimental: In this Example, the specific activities of three previously uncharacterized type-III polyketide synthases (PKS) to form olivetolic acid from hexanoyl-CoA and malonyl-CoA in the presence of olivetolic acid cyclase (OAC) were determined and compared to the olivetol synthase (OLS) from C. sativa.
as §1

[5] = test system: E. coli derivative strain which overexpressed an acyl-CoA synthetase (fadD) gene and expressed an olivetolic acid cyclase (OAC) from Cannabis sativa; test: OL, OLA and PDAL production in E. coli from genome-integrated Type-III PKS genes; assay type: cell-based; details: for Total: OL + OLA + PDAL; for OL / OLA / PDAL: constitutive promoter, 4 mM hexanoic acid
Experimental: as §3, §4, §5
Three of the type-III PKS genes from Example 1 were integrated under control of a constitutive promoter into an E. coli derivative strain which overexpressed an acyl-CoA synthetase (fadD) gene and expressed an olivetolic acid cyclase (OAC) from Cannabis sativa.
as §6

[6] = increasing concentrations of the added product
[7] = at 1 mM OLA, butyryl-CoA substrate

Molecule | effect on formation of the tetraketide products (DVL+DVA) [1, 6] | effect on the triketide product propyl-DAL [1, 6] | effect on formation of the tetraketide products (DVL+DVA) [2, 6] | effect on the triketide product propyl-DAL [2, 6] | amount of DVA+DVL formed by the enzyme (OLS from C. sativa) [µM] | enzyme activity (OLS from C. sativa) | Total [3] [µM] | levels of OLA relative to the E. coli strain with OLS from C. sativa [3] | OL [3] [µM] | OLA [3] [µM] | PDAL [3] [µM] | products produced by strains with chromosomally expressed enzyme [5] | Total [5] [µM] | OL [5] [µM] | OLA [5] [µM] | PDAL [5] [µM] | further results
CCCCCc1cc(O)cc(O)c1 [OL, olivetol] | not inhibited | decreased | not inhibited | decreased | 2 | almost completely inactive |  |  |  |  |  |  |  |  |  |  | 
CCCCCc1cc(O)cc(O)c1C(=O)O [OLA, olivetolic acid] | not inhibited, but rather stimulated | inhibited | not inhibited, but rather stimulated | inhibited | 1.5 | almost completely inactive |  |  |  |  |  |  |  |  |  |  | amount of DVA+DVL formed [1, 7]: about 9 μM; amount of the triketide propyl-DAL [1, 7]: 3 to 5 µM; amount of DVA+DVL formed [2, 7]: about 9 μM; amount of the triketide propyl-DAL [2, 7]: 3 to 5 µM
CCCCCc1cc(O)cc(=O)o1 [PDAL, pentyl diacetic acid lactone] |  |  |  |  |  |  |  |  |  |  |  |  |  |  |  |  | effect on activity of the enzyme [1, 6]: not inhibited; effect on activity of the enzyme [2, 6]: not inhibited; inhibition of the activity of OLS from C. sativa (OLS from C. sativa; [6]): inhibitory, but to a somewhat lesser extent
B1 |  |  |  |  |  |  | 1781 | over two-fold | 672 | 751 | 358 | produced olivetol (OL), olivetolic acid (OLA) and pentyl diacetic acid lactone (PDAL) | 1038 | 355 | 534 | 149 | specific activity to form olivetolic acid compared with OLS from C. sativa [4]: higher specific activities
B2 |  |  |  |  |  |  | 2095 | over two-fold | 579 | 754 | 761 | produced olivetol (OL), olivetolic acid (OLA) and pentyl diacetic acid lactone (PDAL) | 483 | 178 | 223 | 82 | 
B3 |  |  |  |  |  |  | 1045 |  | 427 | 436 | 181 | produced olivetol (OL), olivetolic acid (OLA) and pentyl diacetic acid lactone (PDAL) | 927 | 249 | 472 | 206 | 
